The Kd is the concentration at which binding is half-saturated. A higher Kd goes with a looser complex.

Drawing on article PMC4589512 (Nature cell biology, 2015), this text covers Kd for 1 molecule.

This test concerns the target CGG-CC1 (human, UniProt Q13586 233-343). Nature of the test: SPR. (SPR reads the build-up and loss of mass on a sensor chip optically.)

CGG-CC1, sequence (Q13586 233-343): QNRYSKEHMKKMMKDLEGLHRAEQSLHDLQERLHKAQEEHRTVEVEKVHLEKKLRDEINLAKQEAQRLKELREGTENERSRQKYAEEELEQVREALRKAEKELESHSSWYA

B1: STIMATE-CT (analyte of the SPR) (domain or fragment)
chain: DNFLMRKGKTKAKLEERGANQDSRNGSKVRYRRAASHEESESEILISADDEMEESDVEEDLRRLTPLKPVKKKKHRFGLPV
As to B1, the dissociation constant Kd came out at 8.9 ± 0.7 µM.
